Biological target: T1, Cdc25, P04821
T1 sequence (P04821 50-136, looked up): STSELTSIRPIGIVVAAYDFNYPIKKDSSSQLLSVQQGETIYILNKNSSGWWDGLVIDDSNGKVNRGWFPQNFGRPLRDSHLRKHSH
Test: SPOT array
Conditions: median of control spots 969

Point of comparison: RRRIAYPFYPFKKLG, SPOT intensity 85. Against it:
- RKRRTHLRLPLIRSN — lower, 59
- RRARRQMGIPTISQV — higher, 120

Biological target: T2, Sla1-2, P32790
T2 sequence (P32790 60-140, looked up): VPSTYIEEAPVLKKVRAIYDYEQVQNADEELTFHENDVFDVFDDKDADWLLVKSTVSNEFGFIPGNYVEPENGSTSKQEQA
Test: SPOT array
Conditions: median of control spots 712

Point of comparison: RKRRTHLRLPLIRSN, SPOT intensity 0. Against it:
- RRARRQMGIPTISQV — higher, 15
- RRRIAYPFYPFKKLG — the same, 0

Biological target: T3, Bzz1-2, P38822
T3 sequence (P38822 568-633, looked up): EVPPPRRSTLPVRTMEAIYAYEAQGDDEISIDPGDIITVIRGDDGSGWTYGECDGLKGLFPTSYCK
Test: SPOT array
Conditions: median of control spots 4538

Point of comparison: RRARRQMGIPTISQV, SPOT intensity 25. Against it:
- RKRRTHLRLPLIRSN — lower, 0
- RRRIAYPFYPFKKLG — lower, 6

Biological target: T4, Bud14, P27637
T4 sequence (P27637 247-328, looked up): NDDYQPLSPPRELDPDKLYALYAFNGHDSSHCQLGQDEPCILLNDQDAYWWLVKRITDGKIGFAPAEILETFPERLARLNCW
Test: SPOT array
Conditions: median of control spots 956

Point of comparison: RRRIAYPFYPFKKLG, SPOT intensity 3. Against it:
- RKRRTHLRLPLIRSN — higher, 23
- RRARRQMGIPTISQV — higher, 41

Biological target: GST
Test: SPOT array
Conditions: median of control spots 978

Point of comparison: RRARRQMGIPTISQV, SPOT intensity 7. Against it:
- RKRRTHLRLPLIRSN — lower, 4
- RRRIAYPFYPFKKLG — lower, 2

Biological target: T5, Sla1-3, P32790
T5 sequence (P32790 344-424, looked up): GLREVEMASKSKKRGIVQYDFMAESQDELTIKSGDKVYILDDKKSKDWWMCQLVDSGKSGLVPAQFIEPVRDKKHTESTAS
Test: SPOT array
Conditions: median of control spots 5475

Point of comparison: RRRIAYPFYPFKKLG, SPOT intensity 21. Against it:
- RKRRTHLRLPLIRSN — lower, 14
- RRARRQMGIPTISQV — lower, 14

Biological target: T6, Bbc1, P47068
T6 sequence (P47068 1-78, looked up): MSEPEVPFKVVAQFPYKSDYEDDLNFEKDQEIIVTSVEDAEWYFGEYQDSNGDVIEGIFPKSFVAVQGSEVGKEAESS
Test: SPOT array
Conditions: median of control spots 796

Point of comparison: RRARRQMGIPTISQV, SPOT intensity 58. Against it:
- RKRRTHLRLPLIRSN — higher, 101
- RRRIAYPFYPFKKLG — higher, 133

Biological target: T7, Lsb4, P32793
T7 sequence (P32793 402-468, looked up): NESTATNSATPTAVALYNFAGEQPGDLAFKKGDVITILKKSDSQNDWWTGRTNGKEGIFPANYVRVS
Test: SPOT array
Conditions: median of control spots 397

Point of comparison: RRRIAYPFYPFKKLG, SPOT intensity 0. Against it:
- RKRRTHLRLPLIRSN — the same, 0
- RRARRQMGIPTISQV — higher, 16

Biological target: T8, Abp1, P15891
T8 sequence (P15891 535-592, looked up): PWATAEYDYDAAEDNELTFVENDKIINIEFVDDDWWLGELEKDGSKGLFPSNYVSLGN
Test: SPOT array
Conditions: median of control spots 935

Point of comparison: RKRRTHLRLPLIRSN, SPOT intensity 75. Against it:
- RRARRQMGIPTISQV — higher, 95
- RRRIAYPFYPFKKLG — lower, 36

Biological target: T9, Pex13, P80667
T9 sequence (P80667 295-386, looked up): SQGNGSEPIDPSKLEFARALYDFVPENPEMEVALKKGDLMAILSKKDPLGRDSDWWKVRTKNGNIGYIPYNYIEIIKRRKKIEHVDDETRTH
Test: SPOT array
Conditions: median of control spots 1341

Point of comparison: RKRRTHLRLPLIRSN, SPOT intensity 0. Against it:
- RRARRQMGIPTISQV — higher, 19
- RRRIAYPFYPFKKLG — higher, 5

Biological target: T10, Nbp2, Q12163
T10 sequence (Q12163 103-180, looked up): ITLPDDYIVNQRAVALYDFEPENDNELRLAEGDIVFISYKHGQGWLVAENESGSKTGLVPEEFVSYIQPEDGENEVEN
Test: SPOT array
Conditions: median of control spots 357

Point of comparison: RRARRQMGIPTISQV, SPOT intensity 2. Against it:
- RKRRTHLRLPLIRSN — higher, 9
- RRRIAYPFYPFKKLG — higher, 21

Biological target: T11, Hse1, P38753
T11 sequence (P38753 208-285, looked up): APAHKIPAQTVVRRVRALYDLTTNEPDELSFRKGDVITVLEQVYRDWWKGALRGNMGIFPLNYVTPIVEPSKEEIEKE
Test: SPOT array
Conditions: median of control spots 1727

Point of comparison: RRRIAYPFYPFKKLG, SPOT intensity 13. Against it:
- RKRRTHLRLPLIRSN — lower, 6
- RRARRQMGIPTISQV — lower, 11

Biological target: Bem1-2, P29366
Test: SPOT array
Conditions: median of control spots 4347

Chain of Bem1-2, P29366 (P29366 139-227): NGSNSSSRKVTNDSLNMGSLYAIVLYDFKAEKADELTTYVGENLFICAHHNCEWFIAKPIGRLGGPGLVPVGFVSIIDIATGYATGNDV

Point of comparison: RRRIAYPFYPFKKLG, SPOT intensity 3. Against it:
- RKRRTHLRLPLIRSN — lower, 0
- RRARRQMGIPTISQV — higher, 12

Biological target: T12, Pin3, Q06449
T12 sequence (Q06449 53-122, looked up): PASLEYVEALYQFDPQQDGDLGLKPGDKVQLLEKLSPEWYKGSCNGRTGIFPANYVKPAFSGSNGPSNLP
Test: SPOT array
Conditions: median of control spots 2171

Point of comparison: RRARRQMGIPTISQV, SPOT intensity 33. Against it:
- RKRRTHLRLPLIRSN — lower, 3
- RRRIAYPFYPFKKLG — lower, 0

Biological target: T13, Fus1, P11710
T13 sequence (P11710 432-512, looked up): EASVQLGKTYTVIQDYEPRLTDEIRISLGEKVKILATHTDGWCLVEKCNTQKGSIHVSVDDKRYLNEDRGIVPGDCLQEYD
Test: SPOT array
Conditions: median of control spots 1200

Point of comparison: RRRIAYPFYPFKKLG, SPOT intensity 14. Against it:
- RKRRTHLRLPLIRSN — higher, 55
- RRARRQMGIPTISQV — lower, 1

Biological target: T14, Myo5, Q04439
T14 sequence (Q04439 1072-1160, looked up): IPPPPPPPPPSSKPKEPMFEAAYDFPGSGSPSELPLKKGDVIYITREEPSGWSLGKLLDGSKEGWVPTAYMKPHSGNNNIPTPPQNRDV
Test: SPOT array
Conditions: median of control spots 471

Point of comparison: RRRIAYPFYPFKKLG, SPOT intensity 0. Against it:
- RKRRTHLRLPLIRSN — the same, 0
- RRARRQMGIPTISQV — higher, 20

Biological target: T15, Lsb3, P43603
T15 sequence (P43603 385-451, looked up): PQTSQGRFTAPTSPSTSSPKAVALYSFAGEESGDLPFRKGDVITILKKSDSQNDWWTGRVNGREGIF
Test: SPOT array
Conditions: median of control spots 406

Point of comparison: RRRIAYPFYPFKKLG, SPOT intensity 0. Against it:
- RKRRTHLRLPLIRSN — the same, 0
- RRARRQMGIPTISQV — higher, 6

Biological target: T16, Lsb1, P53281
T16 sequence (P53281 45-122, looked up): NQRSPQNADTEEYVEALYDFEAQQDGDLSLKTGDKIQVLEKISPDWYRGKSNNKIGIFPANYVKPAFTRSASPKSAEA
Test: SPOT array
Conditions: median of control spots 388

Point of comparison: RRRIAYPFYPFKKLG, SPOT intensity 4. Against it:
- RKRRTHLRLPLIRSN — lower, 3
- RRARRQMGIPTISQV — higher, 35

Biological target: T17, Boi2, P39969
T17 sequence (P39969 32-116, looked up): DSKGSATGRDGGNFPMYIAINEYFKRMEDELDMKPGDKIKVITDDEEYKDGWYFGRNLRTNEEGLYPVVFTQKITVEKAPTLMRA
Test: SPOT array
Conditions: median of control spots 1161

Point of comparison: RRRIAYPFYPFKKLG, SPOT intensity 0. Against it:
- RKRRTHLRLPLIRSN — the same, 0
- RRARRQMGIPTISQV — higher, 1

Biological target: T18, Bzz1-1, P38822
T18 sequence (P38822 478-572, looked up): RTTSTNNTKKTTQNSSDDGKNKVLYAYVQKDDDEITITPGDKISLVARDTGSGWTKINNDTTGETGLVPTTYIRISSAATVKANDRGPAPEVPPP
Test: SPOT array
Conditions: median of control spots 4446

Point of comparison: RKRRTHLRLPLIRSN, SPOT intensity 1. Against it:
- RRARRQMGIPTISQV — higher, 2
- RRRIAYPFYPFKKLG — lower, 0

Biological target: Myo3, P36006
Test: SPOT array
Conditions: median of control spots 468

Point of comparison: RRARRQMGIPTISQV, SPOT intensity 10. Against it:
- RKRRTHLRLPLIRSN — lower, 5
- RRRIAYPFYPFKKLG — lower, 2

Biological target: Rvs167, P39743
Test: SPOT array
Conditions: median of control spots 2707

Chain of Rvs167, P39743 (P39743 419-482): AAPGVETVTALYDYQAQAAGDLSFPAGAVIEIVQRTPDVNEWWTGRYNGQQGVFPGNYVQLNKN

Point of comparison: RRARRQMGIPTISQV, SPOT intensity 2. Against it:
- RKRRTHLRLPLIRSN — lower, 0
- RRRIAYPFYPFKKLG — lower, 0

Biological target: T19, Hof1, Q05080
T19 sequence (Q05080 590-669, looked up): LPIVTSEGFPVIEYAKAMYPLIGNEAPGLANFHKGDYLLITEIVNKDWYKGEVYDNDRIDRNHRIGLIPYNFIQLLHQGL
Test: SPOT array
Conditions: median of control spots 4086

Point of comparison: RRRIAYPFYPFKKLG, SPOT intensity 8. Against it:
- RKRRTHLRLPLIRSN — lower, 0
- RRARRQMGIPTISQV — lower, 3

Biological target: Sho1, P40073
Test: SPOT array
Conditions: median of control spots 1148

Chain of Sho1, P40073 (P40073 287-367): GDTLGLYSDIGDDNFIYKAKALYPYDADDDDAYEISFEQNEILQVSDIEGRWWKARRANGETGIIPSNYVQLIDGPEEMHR

Point of comparison: RRRIAYPFYPFKKLG, SPOT intensity 25. Against it:
- RKRRTHLRLPLIRSN — higher, 47
- RRARRQMGIPTISQV — higher, 79

Biological target: T20, Boi1, P38041
T20 sequence (P38041 1-86, looked up): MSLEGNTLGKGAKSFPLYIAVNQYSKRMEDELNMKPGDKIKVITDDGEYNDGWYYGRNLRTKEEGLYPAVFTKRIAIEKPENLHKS
Test: SPOT array
Conditions: median of control spots 1162

Point of comparison: RRARRQMGIPTISQV, SPOT intensity 3. Against it:
- RKRRTHLRLPLIRSN — lower, 2
- RRRIAYPFYPFKKLG — lower, 2

Biological target: T21, Cyk3, Q07533
T21 sequence (Q07533 1-83, looked up): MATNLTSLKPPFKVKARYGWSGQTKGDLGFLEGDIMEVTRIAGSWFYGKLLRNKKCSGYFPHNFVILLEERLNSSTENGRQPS
Test: SPOT array
Conditions: median of control spots 1451

Point of comparison: RRARRQMGIPTISQV, SPOT intensity 2. Against it:
- RKRRTHLRLPLIRSN — higher, 8
- RRRIAYPFYPFKKLG — lower, 1

Biological target: Bem1-1, P29366
Test: SPOT array
Conditions: median of control spots 4282

Chain of Bem1-1, P29366 (P29366 55-141): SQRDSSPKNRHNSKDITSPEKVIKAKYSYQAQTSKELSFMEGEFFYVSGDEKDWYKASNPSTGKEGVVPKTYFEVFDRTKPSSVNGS

Point of comparison: RRRIAYPFYPFKKLG, SPOT intensity 1. Against it:
- RKRRTHLRLPLIRSN — lower, 0
- RRARRQMGIPTISQV — higher, 3

Reference: paper PMC2756588
